Experimental data published in the nanobody polyreactivity screen of Harvey et al. (2022).

Test: yeast display, Sf9 membrane polyspecificity reagent, FACS + sequencing; frameworks hold sequencing errors
Procedure, shortened: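 In a synthetic yeast display library (Saccharomyces cerevisiae BJ5465), nanobody expression was induced with galactose for 36–48 hours. FACS gates were set low and high (top ~1%) using anti-HA fluorescence for expression and streptavidin fluorescence for binding of the Sf9 membrane reagent. Each polyreactivity label is drawn from the gate of origin.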

Sequence	polyreactivity (PSR sort gate)
QVQLVESGGGLVQAGGSLRLSCAASGLIFLDYAMGWYRQAPGKERELVAAISRSGGRTYYADSVKGRFTISRDNAKNTVYLQMNSLKPEDTAVYYCAADGSRKSEIYDYWGQGTQVTVSS	high polyreactivity
QVQLVESGGGLVQAGGSLRLSCAASGLIFLTYARGWYRQAPGKERELVATISGSTGGTYYADSVKGRFTISRDNAKNTVYLQMNSLKPEDTAVYYCNASVFQSEYDYWGQGTQVTVSS	low polyreactivity
QVQLVESGGGLVQAGGSLRLSCAASGLIFLYAMGWYRQAPGKERELVAAISNGGSTYYADSVKGRFTISRDNAKNTVYLQMYSLKPEDTAVYYCAVYYPGKYGYWGQGTQVTVSS	high polyreactivity
QVQLVESGGGLVQAGGSLRLSCAASGLIFLYYAMGWNRQAPGKERELVAAIRTNYADSVKGRFTISRDNAKNTVYLQMNSLKPEDTPVYYCAAESCQTPTSAFDYWGQGTQVTVSS	low polyreactivity
QVQLVESGGGLVQAGGSLRLSCAASGLIFLYYAMGWYRQAPGKERELVAAISRRGGSTYYADSVKGRFTISRDNAKNTVYLQMNSLKPEDTAVDYCAANYESYPRGIWTYYYWGQGTQVTVSS	high polyreactivity
QVQLVESGGGLVQAGGSLRLSCAASGLIFNLNAMGWYSPAPGKEREFVATITGIGGSTYYADSVKGRFTISRDNAKNTVYLQMNSLKPEDTAVYYCAADAWFVPYNYWGQGTQVTVSS	low polyreactivity
QVQLVESGGGLVQAGGSLRLSCAASGLIFPIYAMGWYRPAPGKERELVAVITWSGGSTYYADSVKGRFTISRDNAKNTVYLQMNSLKPEDTAVYYCSVEWAYPYWYTYYLEDYWGQGTQVTVSS	low polyreactivity
QVQLVESGGGLVQAGGSLRLSCAASGLIFPIYAMGWYRQAPGKERELVAVITWSGGSTYYADSVKGRFTISRDNAKNTVYLQMNSLKPEDTAVYYCAVEWAYPYWYTYYLEDYWGQGTQVTVSS	low polyreactivity
QVQLVESGGGLVQAGGSLRLSCAASGLIFPLYDMGWYIQAPGKDRELVAAITWGGGGTYYADSVKGRFTISRDNAKNTVYLQMNSLKPEDTAVYYCNADSDIAAPLRTYITFDYWGQGTQVTVSS	low polyreactivity
QVQLVESGGGLVQAGGSLRLSCAASGLIFPPNVMGWYRQAPGKDRELVAAITSSGSTNYADSVTGRFTISRDNAKNTVYLQMNSLKPEDTAVYYCARDQTWSYQPWYYLSYTQYEYWGQGNQVTVSS	low polyreactivity
QVQLVESGGGLVQAGGSLRLSCAASGLIFPRYAMGWYRQAPGKERELVAAISSGGSTNYADSVKGRFTISRDNAKNTVYLQMNSLKPEDTAVYYCAASSYYYRFSRWPYYHRYYWGQGTQVTVSS	low polyreactivity
QVQLVESGGGLVQAGGSLRLSCAASGLIFPRYGMGGYRPAPGKERELVAAITRGGSTYYADSVKGRFTISRDNAKNTVYLQMNSLKPEDTAVYYCIAELPVHWSWYDYWGHGTQVTVSS	low polyreactivity
QVQLVESGGGLVQAGGSLRLSCAASGLIFPRYGMVWYRKAPGKERELVAAISWSGGSTYYADSVKGRFTISRDNAKNTVYLQMNSLKPEDTAVYYCAVLSNRGVYGSDYWGQGTQVTVSS	high polyreactivity
QVQLVESGGGLVQAGGSLRLSCAASGLIFPSYTMGWYRQAPGKERELVAAITFSGDSTNYADSVKGRFTISRDNAKNTVYLQMNSLKPEDTAVYYCAASQVSDTTRFGYWGQGTQVTVSS	low polyreactivity
QVQLVESGGGLVQAGGSLRLSCAASGLIFPVYAMGWYRQAPGKDREFVASIWRGGTTYYADSVKGRFTISRDNAKNTVYLQMNSLKPEDTAVYYCAAVVYSRGYYWGQGTQVTVSS	high polyreactivity
QVQLVESGGGLVQAGGSLRLSCAASGLIFPYNAMGWYRQAPGKERELVAAIDTRGSSTYYADSVKGRFTISRDNAKNTVYLQMNSLKPEDTAVYYCAADYRVQLRKEYDYWGQGTQVTVSS	high polyreactivity
QVQLVESGGGLVQAGGSLRLSCAASGLIFPYYAMGWYRQAPGKERELVAAISYRGSRTYYADSVKGRFTISRDNAKNTVYLQMNSLKPEDTAVYYCIAGVSGRDNYWGQGTQVNVSS	high polyreactivity
QVQLVESGGGLVQAGGSLRLSCAASGLIFQVYTMGWYRQAPGKERELVAAISWDAGSTYYADSVKGRFTISRDNAKNTVYLQMNSLKPEDTAVYYCAAKRKIRGYGPYEYWGQGTQVTVSS	high polyreactivity
QVQLVESGGGLVQAGGSLRLSCAASGLIFRAYAMGWSRPAPGKERELVAAITSSSGSTYYADSVKGRFTISRDNAKNTVYLQMNSLTPEDTAVYYCNAYSTFGWYDYWGQGTQVTVSS	low polyreactivity
QVQLVESGGGLVQAGGSLRLSCAASGLIFRHYAMGWYRQAPGKERELVAAIDYSGGSTYYADSVKGRFTISRDNAKNTVYLQMNSLKPEDTAVYYCAADYFWLYYSEYGYWGQGTQVTVSS	low polyreactivity
QVQLVESGGGLVQAGGSLRLSCAASGLIFRHYAMGWYRQSPGKEREFVAAITWSGGSTYYADSVKGRFTISRDNAKNTVYLQMNSLKPEDTAVYYCAAEGPGYGPTGDFYWYTYYYWGQGSQVTVSS	low polyreactivity
QVQLVESGGGLVQAGGSLRLSCAASGLIFRPYTMGWYRQAPGKERELVATISGSGASTNYADSVKGRFTISRDNAKNTVYLQMNSLKPEDTAVYYCKGRSYSRMYYWGQGTQVTVSS	high polyreactivity

Sequence	polyreactivity (PSR sort gate)
QVQLVESGGGLVQAGGSLRLSCAASGLIFRRYAMGWYRQAPGKERELVAAITSSGGSTYYADSVKGRFTISRDNAKNTVYLQMNSLKPEDTAVYYCNAYYTGRSAPDSWGQGTQVTVSS	high polyreactivity
QVQLVESGGGLVQAGGSLRLSCAASGLIFRRYAMGWYRQAPGKERELVATINSGGSTNYADSVKGRFTISRDNAKNTVYLQMNSLKPEDTAVYYCAAKKFRRFTKWYDYWGQGTQVTVSS	high polyreactivity
QVQLVESGGGLVQAGGSLRLSCAASGLIFRSNAMGWYRQAPGKERELVAAISRNGQSTYYADSVKGRFTISRDNAKYTVYLQMNSLKPEDTAVFYCAARSRDKYDYWGQGTEVTVSS	high polyreactivity
QVQLVESGGGLVQAGGSLRLSCAASGLIFRVNAMGWYRQAPGKERELVADINSGGGTSYADSVKGRFTISRDNAKNTVYLQMNSLKPEDTAVYYCAAAWWPYSYPTYYSQYDYWGQGTQVTVSS	low polyreactivity
QVQLVESGGGLVQAGGSLRLSCAASGLIFRVYAMGRYRQAPGKERELVATITRGGRTYYADSVKGRFTISRDNAKNTVYLQMNSLKPEDTAVYYCAVLSVRRSYNYWGQGTQVTVSS	high polyreactivity
QVQLVESGGGLVQAGGSLRLSCAASGLIFRWYAMGWYRQAPGKERELVAAISRRGGNTYYADSVKGRFTISRDNAKNTVYLQMNSLKPEDTAVYYCAASPIRSQGNDYWGQGTQVNVSS	high polyreactivity
QVQLVESGGGLVQAGGSLRLSCAASGLIFRWYAMGWYRQAPGKETELVAAINYSGGRTYYADSVKGRFTISRDNAKNTVYLQMNSLKPEDTAVYYCNAVAVPSTYDYWGQGTQVTVSS	low polyreactivity
QVQLVESGGGLVQAGGSLRLSCAASGLIFRWYAMGWYRTAPGKERELVAAISRRGGTTNYADSVKGRFTISRDNAKNTVYLQMNSLKPDDTAVYYCAADYQSVGGAEYDYWGQGTQVTVSS	high polyreactivity
QVQLVESGGGLVQAGGSLRLSCAASGLIFRYYAMGWYRQAPGKERELVASISWHGGSTNYADSVKGRFTISRDNAKNTVYLQMNSLKPEDTAVYYCAADAWVATTILHDYWGQGTQVTVSS	high polyreactivity
QVQLVESGGGLVQAGGSLRLSCAASGLIFRYYSMGWYRQAPGKERELVAAISWTGGSTYYADSVKGRFTISRDNAKYTVYLQLNSLKPEDTAVYYCIAGQWRYPGLYYYWGQGTQVTVSS	high polyreactivity
QVQLVESGGGLVQAGGSLRLSCAASGLIFSEYAMGWSRQAPGKETELVADIRSDGGSTYYADSVKGRFTISRDNAKNTVYLQINSLKPEDTAVYYCNAPYRRSAKFRRYGYDYWGQGTQVTVSS	high polyreactivity
QVQLVESGGGLVQAGGSLRLSCAASGLIFSNNAMGWYRQAPGKERELVAAISKSGGGTSYADSVKGRFTISRDNAKNTVYLQMNSLKPEDTAVYYCAARFRQFRVDYWGQGTQVTVSS	high polyreactivity
QVQLVESGGGLVQAGGSLRLSCAASGLIFSRNAMGWYRQAPGKERELVAAISGGGGSTYYADSVKGRFTISRDNAKNTVYLQMNSLKPEATAVYYCAAKGYWWLTPWIATYDYWGQGTQVTVSS	high polyreactivity
QVQLVESGGGLVQAGGSLRLSCAASGLIFSRYAMGWYRQAPGKERELVAAITWRGGSTYYADSVKGRFTISRDNAKNTVYLQMNSLKPEDTAVYYCNADGLWFQGYNSWGQGTQVTVSS	low polyreactivity
QVQLVESGGGLVQAGGSLRLSCAASGLIFSVYAMGWYRKAPGKERELVAAITGGGSTHYADSVKGRFTISRDNAKNTVYLQMNSLKPEDTAVYYCATRSYSWLHYWTSRGDEDYWGQGTQVTVSS	high polyreactivity
QVQLVESGGGLVQAGGSLRLSCAASGLIFSVYAMGWYRQAPGKERELVAAISWSGSTYYADSVKGRFTISRDNAKNTVYLQMNSLKPEDTAVDYCAAEYDYDHFYWMDYWGQGTQVTVSS	high polyreactivity
QVQLVESGGGLVQAGGSLRLSCAASGLIFSVYAMGWYRQAPGKVRELVAAITGSGGRTYYADSVKGRFTISRDNAKNYVYLQMNSLKPEDTAVYYCAATVSSYPYYRYYSWGQGTQVTVSS	high polyreactivity
QVQLVESGGGLVQAGGSLRLSCAASGLIFSWYDMGWYRQAPGKERELVAAITTDGDDTYYADSVKGRFTISRDNAKNTVYLQMNSLKPEDTAVYYCAADSELAIRYPDRDYDSWGQGTQVTVSS	low polyreactivity
QVQLVESGGGLVQAGGSLRLSCAASGLIFSYNAMGWYRQAHGKETELVATIRRVGSTNYADSVKGRFTISRDNAKNTVYLQMNSLQPDDTAVYYCAAVYVRIGTRYGYWGQGTQVTVSS	high polyreactivity
QVQLVESGGGLVQAGGSLRLSCAASGLIFSYYTMGWYRQAPGKERELVAAISSAGGSTYYADSVKGRFTISRDNAKNTVYLQMNSLKPEDTAVYYCAARYSGRPYGPPGYLWKDYYWGQGTQVTVSS	high polyreactivity
QVQLVESGGGLVQAGGSLRLSCAASGLIFTDYDMGWYRQAPGKERELVAAISTSGGSTYYADSVKGRFTISRDNAKNPVYLQMNSLKPAETAVYYCAAEYVYPYWNGFDYWGQGTQVTVSS	low polyreactivity
